Assay results reported in US8309523 (VIB VZW, dated 2012).
Where two headings read alike, the source gives them in different places.

Key:
Ac-LSSR-AMC [1] = target: T1, Ac-LSSR-AMC
T1 chain: LSSR

Z-LSSR-CHO = target: T2, Z-LSSR-CHO
T2 chain: LSSR

[2] = target: T3, Arabidopsis thaliana serpin (AT1g47710), Q9S7T8
T3 chain: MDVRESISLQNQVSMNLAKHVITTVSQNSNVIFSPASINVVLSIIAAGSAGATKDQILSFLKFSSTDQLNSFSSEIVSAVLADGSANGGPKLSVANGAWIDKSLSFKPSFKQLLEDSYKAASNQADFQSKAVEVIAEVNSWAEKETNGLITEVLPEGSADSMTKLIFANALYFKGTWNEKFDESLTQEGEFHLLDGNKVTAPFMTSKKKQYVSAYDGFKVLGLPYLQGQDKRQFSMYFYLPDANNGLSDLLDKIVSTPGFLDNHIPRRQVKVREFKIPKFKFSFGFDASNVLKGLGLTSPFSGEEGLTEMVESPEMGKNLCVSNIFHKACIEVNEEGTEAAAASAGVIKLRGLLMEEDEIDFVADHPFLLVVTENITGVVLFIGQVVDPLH

[3] = target: T4, Arabidopsis thaliana serpin, IKLA-mutant, Q9S7T8
T4 chain: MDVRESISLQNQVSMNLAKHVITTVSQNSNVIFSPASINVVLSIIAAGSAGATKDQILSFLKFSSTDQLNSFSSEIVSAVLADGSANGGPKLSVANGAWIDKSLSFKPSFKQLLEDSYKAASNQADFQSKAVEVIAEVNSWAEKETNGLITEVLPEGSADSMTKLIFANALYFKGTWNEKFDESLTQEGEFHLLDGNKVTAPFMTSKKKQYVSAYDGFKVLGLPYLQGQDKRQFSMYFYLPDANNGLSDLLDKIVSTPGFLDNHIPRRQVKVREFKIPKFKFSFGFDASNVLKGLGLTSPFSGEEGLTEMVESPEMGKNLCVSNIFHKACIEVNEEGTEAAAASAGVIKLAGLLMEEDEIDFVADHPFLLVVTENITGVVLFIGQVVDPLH

Ac-LSSR-AMC [4] = tested on: T5, Ac-LSSR-AMC; remark: listed apart in the source
T5 sequence: LSSR

[5] = target: T6, [35S]methionine-labeled human A20 (in vitro translated) (UniProt P21580)
T6 sequence: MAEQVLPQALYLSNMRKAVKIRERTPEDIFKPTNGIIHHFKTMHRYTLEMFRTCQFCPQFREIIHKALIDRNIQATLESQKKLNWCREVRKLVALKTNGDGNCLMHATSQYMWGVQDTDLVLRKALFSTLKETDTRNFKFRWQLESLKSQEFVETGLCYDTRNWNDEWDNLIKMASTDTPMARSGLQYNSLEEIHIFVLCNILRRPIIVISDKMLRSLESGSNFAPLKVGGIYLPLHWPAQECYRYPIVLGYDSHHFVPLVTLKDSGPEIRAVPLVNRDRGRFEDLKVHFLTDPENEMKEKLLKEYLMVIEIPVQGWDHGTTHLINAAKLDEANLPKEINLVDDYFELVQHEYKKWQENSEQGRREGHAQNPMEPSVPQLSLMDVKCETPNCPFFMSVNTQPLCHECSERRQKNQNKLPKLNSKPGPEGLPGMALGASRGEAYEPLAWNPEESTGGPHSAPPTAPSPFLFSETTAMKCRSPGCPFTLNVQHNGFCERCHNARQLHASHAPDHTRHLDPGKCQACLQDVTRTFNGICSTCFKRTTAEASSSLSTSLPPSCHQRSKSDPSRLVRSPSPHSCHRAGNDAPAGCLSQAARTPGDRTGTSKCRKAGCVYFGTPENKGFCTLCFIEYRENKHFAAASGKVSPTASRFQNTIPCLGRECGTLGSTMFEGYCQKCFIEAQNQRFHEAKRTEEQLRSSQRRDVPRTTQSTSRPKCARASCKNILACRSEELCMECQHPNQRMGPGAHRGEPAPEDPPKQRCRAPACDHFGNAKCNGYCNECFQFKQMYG

B1: MALT1 (wild type, Flag- and Avi-tagged bio-construct) (protein)
chain: MSLLGDPLQALPPSAAPTGPLLAPPAGATLNRLREPLLRRLSELLDQAPEGRGWRRLAELAGSRGRLRLSCLDLEQCSLKVLEPEGSPSLCLLKLMGEKGCTVTELSDFLQAMEHTEVLQLLSPPGIKITVNPESKAVLAGQFVKLCCRATGHPFVQYQWFKMNKEIPNGNTSELIFNAVHVKDAGFYVCRVNNNFTFEFSQWSQLDVCDIPESFQRSVDGVSESKLQICVEPTSQKLMPGSTLVLQCVAVGSPIPHYQWFKNELPLTHETKKLYMVPYVDLEHQGTYWCHVYNDRDSQDSKKVEIIIGRTDEAVECTEDELNNLGHPDNKEQTTDQPLAKDKVALLIGNMNYREHPKLKAPLVDVYELTNLLRQLDFKVVSLLDLTEYEMRNAVDEFLLLLDKGVYGLLYYAGHGYENFGNSFMVPVDAPNPYRSENCLCVQNILKLMQEKETGLNVFLLDMCRKRNDYDDTIPILDALKVTANIVFGYATCQGAEAFEIQHSGLANGIFMKFLKDRLLEDKKITVLLDEVAEDMGKCHLTKGKQALEIRSSLSEKRALTDPIQGTEYSAESLVRNLQWAKAHELPESMCLKFDCGVQIQLGFAAEFSNVMIIYTSIVYKPPEIIMCDAYVTDFPLDLDIDPKDANKGTPEETGSYLVSKDLPKHCLYTRLSSLQKLKEHLVFTVCLSYQYSGLEDTVEDKQEVNVGKPLIAKLDMHRGLGRKTCFQTCLMSNGPYQSSAATSGGAGHYHSLQDPFHGVYHSHPGNPSNVTPADSCHCSRTPDAFISSFAHHASCHFSRSNVPVETTDEIPFSFSDRLRISEK
cleavage of Ac-LSSR-AMC in vitro (fluorescence release) (Ac-LSSR-AMC [1]): bio-IP purified MALT1 was indeed able to cleave Ac-LSSR-AMC (see SEQ ID NO:1) in vitro
Ac-LSSR-AMC cleavage by bio-IP purified MALT1 (fluorescence release) (Z-LSSR-CHO): Substrate cleavage by MALT1 was efficiently blocked by a Z-LSSR-CHO (see SEQ ID NO:1) and a Z-GASR-CHO (see SEQ ID NO:2) inhibitor at equimolar concentrations

B2: MALT1-C464A (bio-tagged) (protein)
chain: MSLLGDPLQALPPSAAPTGPLLAPPAGATLNRLREPLLRRLSELLDQAPEGRGWRRLAELAGSRGRLRLSCLDLEQCSLKVLEPEGSPSLCLLKLMGEKGCTVTELSDFLQAMEHTEVLQLLSPPGIKITVNPESKAVLAGQFVKLCCRATGHPFVQYQWFKMNKEIPNGNTSELIFNAVHVKDAGFYVCRVNNNFTFEFSQWSQLDVCDIPESFQRSVDGVSESKLQICVEPTSQKLMPGSTLVLQCVAVGSPIPHYQWFKNELPLTHETKKLYMVPYVDLEHQGTYWCHVYNDRDSQDSKKVEIIIGRTDEAVECTEDELNNLGHPDNKEQTTDQPLAKDKVALLIGNMNYREHPKLKAPLVDVYELTNLLRQLDFKVVSLLDLTEYEMRNAVDEFLLLLDKGVYGLLYYAGHGYENFGNSFMVPVDAPNPYRSENCLCVQNILKLMQEKETGLNVFLLDMARKRNDYDDTIPILDALKVTANIVFGYATCQGAEAFEIQHSGLANGIFMKFLKDRLLEDKKITVLLDEVAEDMGKCHLTKGKQALEIRSSLSEKRALTDPIQGTEYSAESLVRNLQWAKAHELPESMCLKFDCGVQIQLGFAAEFSNVMIIYTSIVYKPPEIIMCDAYVTDFPLDLDIDPKDANKGTPEETGSYLVSKDLPKHCLYTRLSSLQKLKEHLVFTVCLSYQYSGLEDTVEDKQEVNVGKPLIAKLDMHRGLGRKTCFQTCLMSNGPYQSSAATSGGAGHYHSLQDPFHGVYHSHPGNPSNVTPADSCHCSRTPDAFISSFAHHASCHFSRSNVPVETTDEIPFSFSDRLRISEK
cleavage of Ac-LSSR-AMC in vitro (fluorescence release) (Ac-LSSR-AMC [1]): whereas bio-1P purified C464 mutant was not

B3: MALT1-R149A (bio-tagged) (protein)
chain: MSLLGDPLQALPPSAAPTGPLLAPPAGATLNRLREPLLRRLSELLDQAPEGRGWRRLAELAGSRGRLRLSCLDLEQCSLKVLEPEGSPSLCLLKLMGEKGCTVTELSDFLQAMEHTEVLQLLSPPGIKITVNPESKAVLAGQFVKLCCAATGHPFVQYQWFKMNKEIPNGNTSELIFNAVHVKDAGFYVCRVNNNFTFEFSQWSQLDVCDIPESFQRSVDGVSESKLQICVEPTSQKLMPGSTLVLQCVAVGSPIPHYQWFKNELPLTHETKKLYMVPYVDLEHQGTYWCHVYNDRDSQDSKKVEIIIGRTDEAVECTEDELNNLGHPDNKEQTTDQPLAKDKVALLIGNMNYREHPKLKAPLVDVYELTNLLRQLDFKVVSLLDLTEYEMRNAVDEFLLLLDKGVYGLLYYAGHGYENFGNSFMVPVDAPNPYRSENCLCVQNILKLMQEKETGLNVFLLDMCRKRNDYDDTIPILDALKVTANIVFGYATCQGAEAFEIQHSGLANGIFMKFLKDRLLEDKKITVLLDEVAEDMGKCHLTKGKQALEIRSSLSEKRALTDPIQGTEYSAESLVRNLQWAKAHELPESMCLKFDCGVQIQLGFAAEFSNVMIIYTSIVYKPPEIIMCDAYVTDFPLDLDIDPKDANKGTPEETGSYLVSKDLPKHCLYTRLSSLQKLKEHLVFTVCLSYQYSGLEDTVEDKQEVNVGKPLIAKLDMHRGLGRKTCFQTCLMSNGPYQSSAATSGGAGHYHSLQDPFHGVYHSHPGNPSNVTPADSCHCSRTPDAFISSFAHHASCHFSRSNVPVETTDEIPFSFSDRLRISEK
cleavage of Ac-LSSR-AMC in vitro (fluorescence release) (Ac-LSSR-AMC [1]): the R149A mutant was as efficient in substrate processing as MALT1

B4: MALT1 as used in the paracaspase assay of Example 10 (protein)
chain: MSLLGDPLQALPPSAAPTGPLLAPPAGATLNRLREPLLRRLSELLDQAPEGRGWRRLAELAGSRGRLRLSCLDLEQCSLKVLEPEGSPSLCLLKLMGEKGCTVTELSDFLQAMEHTEVLQLLSPPGIKITVNPESKAVLAGQFVKLCCRATGHPFVQYQWFKMNKEIPNGNTSELIFNAVHVKDAGFYVCRVNNNFTFEFSQWSQLDVCDIPESFQRSVDGVSESKLQICVEPTSQKLMPGSTLVLQCVAVGSPIPHYQWFKNELPLTHETKKLYMVPYVDLEHQGTYWCHVYNDRDSQDSKKVEIIIGRTDEAVECTEDELNNLGHPDNKEQTTDQPLAKDKVALLIGNMNYREHPKLKAPLVDVYELTNLLRQLDFKVVSLLDLTEYEMRNAVDEFLLLLDKGVYGLLYYAGHGYENFGNSFMVPVDAPNPYRSENCLCVQNILKLMQEKETGLNVFLLDMCRKRNDYDDTIPILDALKVTANIVFGYATCQGAEAFEIQHSGLANGIFMKFLKDRLLEDKKITVLLDEVAEDMGKCHLTKGKQALEIRSSLSEKRALTDPIQGTEYSAESLVRNLQWAKAHELPESMCLKFDCGVQIQLGFAAEFSNVMIIYTSIVYKPPEIIMCDAYVTDFPLDLDIDPKDANKGTPEETGSYLVSKDLPKHCLYTRLSSLQKLKEHLVFTVCLSYQYSGLEDTVEDKQEVNVGKPLIAKLDMHRGLGRKTCFQTCLMSNGPYQSSAATSGGAGHYHSLQDPFHGVYHSHPGNPSNVTPADSCHCSRTPDAFISSFAHHASCHFSRSNVPVETTDEIPFSFSDRLRISEK
paracaspase assay (MALT1 proteolytic activity) [2]: Inhibition of the MALT1 paracaspase activity is possible, but only at relatively high concentrations of serpin
paracaspase assay (MALT1 proteolytic activity) [3]: the IKLA-mutant (SEQ ID NO:16), which is inactive versus plant metacaspase (Vercammen et al., 2006) is performing better than wild type serpin at higher concentrations

B5: MALT1C-gyraseB-C464A (enzyme, part only; not given: gyrase B fragment)
chain, part: TTDQPLAKDKVALLIGNMNYREHPKLKAPLVDVYELTNLLRQLDFKVVSLLDLTEYEMRNAVDEFLLLLDKGVYGLLYYAGHGYENFGNSFMVPVDAPNPYRSENCLCVQNILKLMQEKETGLNVFLLDMARKRNDYDDTIPILDALKVTANIVFGYATCQGAEAFEIQHSGLANGIFMKFLKDRLLEDKKITVLLDEVAEDMGKCHLTKGKQALEIRSSLSEKRALTDPIQGTEYSAESLVRNLQWAKAHELPESMCLKFDCGVQIQLGFAAEFSNVMIIYTSIVYKPPEIIMCDAYVTDFPLDLDIDPKDANKGTPEETGSYLVSKDLPKHCLYTRLSSLQKLKEHLVFTVCLSYQYSGLEDTVEDKQEVNVGKPLIAKLDMHRGLGRKTCFQTCLMSNGPYQSSAATSGGAGHYHSLQDPFHGVYHSHPGNPSNVTPADSCHCSRTPDAFISSFAHHASCHFSRSNVPVETTDEIPFSFSDRLRISEK
cleavage of Ac-LSSR-AMC in vitro (fluorescence release) (Ac-LSSR-AMC [4]): the recombinant C464A mutant failed to do so, although its higher concentration
in vitro cleavage of radiolabeled A20 (SDS-PAGE, autoradiography; 500, 1000 or 1500 nM enzyme) [5]: incubation of A20 with the catalytically inactive MALT1C-gyraseB-C464A mutant protein did not result in A20 cleavage
